This note sets out measurements from the supplement of paper PMC9112550, “Optimization of the antimicrobial peptide Bac7 by deep mutational scanning” (BMC Biology, 2022).
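Note: peptides expressed intracellularly from a pBAD plasmid library in pooled LB shake-flask culture, induced with 0.3% L-arabinose, DNA abundance read by NGS, three biological replicates, DESeq2 with apeglm shrinkage.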

The subject of the series is Escherichia coli TOP10. Put plainly: shrunken log2 fold change of peptide-encoding DNA abundance (4.5 h post-induction vs induction); higher = less antimicrobial activity (less host growth inhibition). To be noted: time post-induction: 4.5 h; library: site-saturation at positions 5, 18, 19, 20.
Regarding RRIRFRPPRLPRPRPRPRKMPRP, the “shrunken log2 fold change” value was 0.0208.

On to RRIRIRPPRLPRPRPRPNCHPRP, for which the “shrunken log2 fold change” value was -0.232. Regarding RRIRGRPPRLPRPRPRPEIAPRP, the “shrunken log2 fold change” value came out at 1.86. With RRIRWRPPRLPRPRPRPQMIPRP the figure was -0.0866; with RRIRYRPPRLPRPRPRPCSDPRP, -0.187.

With RRIRSRPPRLPRPRPRPGVVPRP, the “shrunken log2 fold change” value stood at 0.295. Then RRIRLRPPRLPRPRPRPCTIPRP, with -0.298. With RRIRFRPPRLPRPRPRPRDAPRP the figure was 0.541. Then RRIRSRPPRLPRPRPRPFYYPRP, with -0.615; and RRIRGRPPRLPRPRPRPMCNPRP, with 0.31; and RRIRWRPPRLPRPRPRPSKVPRP, with -0.04.

RRIRQRPPRLPRPRPRPHNIPRP: the “shrunken log2 fold change” value is -0.076. RRIRTRPPRLPRPRPRPDHGPRP: the “shrunken log2 fold change” value was -0.0102. With RRIRGRPPRLPRPRPRPFEVPRP the figure was 0.121; with RRIRERPPRLPRPRPRPTDWPRP, -0.145. Then RRIRFRPPRLPRPRPRPMHLPRP, with 0.00575; and RRIRTRPPRLPRPRPRPYCWPRP, with -0.109; and RRIRSRPPRLPRPRPRPCMDPRP, with -0.0717. Then RRIRDRPPRLPRPRPRPRWLPRP, with 0.511; and RRIRNRPPRLPRPRPRPTVDPRP, with 0.0566; and RRIRQRPPRLPRPRPRPYQFPRP, with -0.168. With RRIRMRPPRLPRPRPRPWHRPRP, the “shrunken log2 fold change” value was -0.0718. With RRIRCRPPRLPRPRPRPCHQPRP the figure was 0.0175; with RRIRIRPPRLPRPRPRPDQIPRP, -0.0795.

For RRIRARPPRLPRPRPRPVPLPRP, the “shrunken log2 fold change” value turned out to be 0.263. In the case of RRIRFRPPRLPRPRPRPWVTPRP, the “shrunken log2 fold change” value was -0.0635. RRIRRRPPRLPRPRPRPPEAPRP: the “shrunken log2 fold change” value was 0.493.

On to RRIRTRPPRLPRPRPRPDKMPRP, for which the “shrunken log2 fold change” value was -0.392.

In the case of RRIRARPPRLPRPRPRPSTIPRP, the “shrunken log2 fold change” value is -0.273. With RRIRGRPPRLPRPRPRPDGTPRP the figure was 1.02. For the sequence RRIRMRPPRLPRPRPRPNADPRP, the “shrunken log2 fold change” value is 2.51. Consider RRIRWRPPRLPRPRPRPWFLPRP, for which the “shrunken log2 fold change” value was -0.617. For RRIRGRPPRLPRPRPRPMCMPRP, the “shrunken log2 fold change” value stood at 0.509. With RRIRRRPPRLPRPRPRPQTLPRP, the “shrunken log2 fold change” value was 0.101. In the case of RRIRNRPPRLPRPRPRPSLFPRP, the “shrunken log2 fold change” value was -0.453.

RRIRRRPPRLPRPRPRPVCVPRP: the “shrunken log2 fold change” value was 0.359. Turning to RRIRFRPPRLPRPRPRPICQPRP, the “shrunken log2 fold change” value is -0.182. With RRIRTRPPRLPRPRPRPIVFPRP the figure was -0.218; with RRIRVRPPRLPRPRPRPYWFPRP, -0.396.

For the sequence RRIRERPPRLPRPRPRPVCHPRP, the “shrunken log2 fold change” value is -0.309. Regarding RRIRDRPPRLPRPRPRPTWIPRP, the “shrunken log2 fold change” value was -0.0164.

In the case of RRIRDRPPRLPRPRPRPLSRPRP, the “shrunken log2 fold change” value is -0.113. Turning to RRIRGRPPRLPRPRPRPPHKPRP, the “shrunken log2 fold change” value turned out to be 0.858.

On to RRIRIRPPRLPRPRPRPLDFPRP, for which the “shrunken log2 fold change” value came to 0.0619. With RRIRWRPPRLPRPRPRPQWTPRP the figure was 0.787. Then RRIRQRPPRLPRPRPRPNWMPRP, with 0.0507; and RRIRLRPPRLPRPRPRPVLLPRP, with 0.0821.

In the case of RRIRCRPPRLPRPRPRPTDVPRP, the “shrunken log2 fold change” value was -0.461. For the sequence RRIRTRPPRLPRPRPRPARRPRP, the “shrunken log2 fold change” value is 0.204.

As for RRIRCRPPRLPRPRPRPGLAPRP, the “shrunken log2 fold change” value came out at 0.544.

As to RRIRPRPPRLPRPRPRPTTQPRP, the “shrunken log2 fold change” value came out at 0.0237. Take RRIRYRPPRLPRPRPRPTCHPRP: the “shrunken log2 fold change” value is -1.16. Regarding RRIRDRPPRLPRPRPRPKLWPRP, the “shrunken log2 fold change” value turned out to be 0.527. On to RRIRWRPPRLPRPRPRPSNCPRP, for which the “shrunken log2 fold change” value was -0.0121. As for RRIRNRPPRLPRPRPRPFSKPRP, the “shrunken log2 fold change” value is -0.303. Then RRIRSRPPRLPRPRPRPFESPRP, with -0.258.

Take RRIRTRPPRLPRPRPRPSSSPRP: the “shrunken log2 fold change” value is -0.164. With RRIRIRPPRLPRPRPRPFMYPRP the figure was -1.36; with RRIRERPPRLPRPRPRPETMPRP, 0.0664; with RRIRMRPPRLPRPRPRPNGKPRP, 0.321. For RRIRNRPPRLPRPRPRPYTEPRP, the “shrunken log2 fold change” value is -0.695.

Consider RRIRRRPPRLPRPRPRPANEPRP, for which the “shrunken log2 fold change” value was 0.245. Then RRIRKRPPRLPRPRPRPIIWPRP, with 0.0809; and RRIRGRPPRLPRPRPRPILWPRP, with 0.376; and RRIRIRPPRLPRPRPRPLWQPRP, with 0.0858.

On to RRIRYRPPRLPRPRPRPFINPRP, for which the “shrunken log2 fold change” value is -1.17. With RRIRRRPPRLPRPRPRPVTLPRP the figure was 0.0854; with RRIRSRPPRLPRPRPRPVKCPRP, -0.0337; with RRIRERPPRLPRPRPRPWDHPRP, -0.204. With RRIRSRPPRLPRPRPRPEHQPRP, the “shrunken log2 fold change” value is 0.163.

In the case of RRIRWRPPRLPRPRPRPVRKPRP, the “shrunken log2 fold change” value stood at 0.167. RRIRWRPPRLPRPRPRPTDLPRP: the “shrunken log2 fold change” value is 0.0776. Then RRIRMRPPRLPRPRPRPRTFPRP, with 0.541; and RRIRLRPPRLPRPRPRPCFLPRP, with -0.337. As for RRIRRRPPRLPRPRPRPMDDPRP, the “shrunken log2 fold change” value amounted to 0.211.

RRIRERPPRLPRPRPRPMSWPRP: the “shrunken log2 fold change” value was 0.13.

Turning to RRIRPRPPRLPRPRPRPKSCPRP, the “shrunken log2 fold change” value was found to be 0.0347. Consider RRIRWRPPRLPRPRPRPHDLPRP, for which the “shrunken log2 fold change” value was -0.0525.

In the case of RRIRLRPPRLPRPRPRPPDCPRP, the “shrunken log2 fold change” value worked out at 0.0366. Take RRIRIRPPRLPRPRPRPVHIPRP: the “shrunken log2 fold change” value is -0.155.

As to RRIRPRPPRLPRPRPRPQSYPRP, the “shrunken log2 fold change” value was -0.202. Consider RRIRNRPPRLPRPRPRPGQTPRP, for which the “shrunken log2 fold change” value is 0.00913.

For RRIRCRPPRLPRPRPRPYTAPRP, the “shrunken log2 fold change” value was -0.595.

On to RRIRMRPPRLPRPRPRPCPDPRP, for which the “shrunken log2 fold change” value was -0.0886. Then RRIRARPPRLPRPRPRPHIHPRP, with -0.45; and RRIRPRPPRLPRPRPRPANVPRP, with -0.122. As to RRIRPRPPRLPRPRPRPRCYPRP, the “shrunken log2 fold change” value came out at 0.0458. Turning to RRIRMRPPRLPRPRPRPTWAPRP, the “shrunken log2 fold change” value was 0.192.

As to RRIRCRPPRLPRPRPRPHLCPRP, the “shrunken log2 fold change” value is -0.111. For RRIRGRPPRLPRPRPRPANTPRP, the “shrunken log2 fold change” value stood at 0.152. Consider RRIRTRPPRLPRPRPRPPHDPRP, for which the “shrunken log2 fold change” value was 0.275.

Turning to RRIRKRPPRLPRPRPRPRHPPRP, the “shrunken log2 fold change” value was 0.412. In the case of RRIRNRPPRLPRPRPRPTFWPRP, the “shrunken log2 fold change” value was found to be 0.323. Turning to RRIRMRPPRLPRPRPRPGCSPRP, the “shrunken log2 fold change” value stood at 0.815. With RRIRDRPPRLPRPRPRPWGPPRP the figure was -0.0594. Take RRIRWRPPRLPRPRPRPSGSPRP: the “shrunken log2 fold change” value is 0.316. On to RRIRSRPPRLPRPRPRPSPPPRP, for which the “shrunken log2 fold change” value came to 0.154. With RRIRHRPPRLPRPRPRPFWEPRP, the “shrunken log2 fold change” value was -0.218. Consider RRIRDRPPRLPRPRPRPRWPPRP, for which the “shrunken log2 fold change” value stood at 0.594. With RRIRWRPPRLPRPRPRPMISPRP the figure was 0.248; with RRIRERPPRLPRPRPRPAFTPRP, -0.0832. With RRIRPRPPRLPRPRPRPAPDPRP the figure was 0.309; with RRIRCRPPRLPRPRPRPCNWPRP, -0.141.

As to RRIRARPPRLPRPRPRPIQCPRP, the “shrunken log2 fold change” value turned out to be 0.00559. Take RRIRPRPPRLPRPRPRPEYWPRP: the “shrunken log2 fold change” value was -0.035.

In the case of RRIRSRPPRLPRPRPRPQWGPRP, the “shrunken log2 fold change” value is -0.0633. As to RRIRHRPPRLPRPRPRPYSKPRP, the “shrunken log2 fold change” value was -1.03. Consider RRIRDRPPRLPRPRPRPMIRPRP, for which the “shrunken log2 fold change” value was -0.0188. With RRIRNRPPRLPRPRPRPCQQPRP the figure was -0.0105; with RRIRSRPPRLPRPRPRPSKRPRP, -0.126.

Regarding RRIRLRPPRLPRPRPRPIIQPRP, the “shrunken log2 fold change” value was -0.439.

Regarding RRIRERPPRLPRPRPRPSYWPRP, the “shrunken log2 fold change” value is -0.266. Take RRIRPRPPRLPRPRPRPLKHPRP: the “shrunken log2 fold change” value is -0.221. Then RRIRWRPPRLPRPRPRPRSRPRP, with 0.385; and RRIRGRPPRLPRPRPRPLEKPRP, with 0.725.

In the case of RRIRRRPPRLPRPRPRPMEKPRP, the “shrunken log2 fold change” value was 0.096. On to RRIRERPPRLPRPRPRPVMWPRP, for which the “shrunken log2 fold change” value came out at 0.0878.

As to RRIRIRPPRLPRPRPRPQDRPRP, the “shrunken log2 fold change” value was -0.007. Then RRIRERPPRLPRPRPRPRRNPRP, with -0.0448; and RRIRERPPRLPRPRPRPIEIPRP, with -0.186; and RRIRYRPPRLPRPRPRPWVPPRP, with -0.0218. As for RRIRTRPPRLPRPRPRPEPSPRP, the “shrunken log2 fold change” value was found to be 0.534. With RRIRARPPRLPRPRPRPYNKPRP the figure was -0.731; with RRIRFRPPRLPRPRPRPYPLPRP, -0.604. Then RRIRCRPPRLPRPRPRPDQRPRP, with -0.254.
